The text below walks through data of paper PMC7804290.

Data set [1] concerns the target T1, nsp12 (RdRp catalytic subunit);nsp8;nsp7 (SARS-CoV-2;SARS-CoV-2;SARS-CoV-2, UniProt P0DTD1;P0DTD1;P0DTD1 4393-5324;3943-4140;3860-3942, ||). The data set can be described thus: cryo-EM (complex isolated by SEC). The note with it: protein: recombinant;recombinant;recombinant; copies: 1;2;1. A general note: SEC sorts molecules by how far they enter the pores of the column.

In data set [2] the target is T1, nsp12 (RdRp catalytic subunit);nsp8;nsp7. The data set is described as follows: cryo-EM (complex isolated by SEC); 1 mM Mg2+; AMP control for structure 2. The note with it: protein: recombinant;recombinant;recombinant; copies: 1;2;1.

B1: scaffold 1 (RMP at -3) (structured_RNA)
RNA 1: UUUUCAUGCAUCGCGUAGGCUCAUACCGUAUUGAGACCUUUUGGUCUCAAUACGGUA
RNA 2: UGAGCCUACGCGAUG
modifications: remdesivir monophosphate (RMP, 1'-cyano-4-aza-7,9-dideazaadenosine) at position 13 of strand 2, written as A
In the case of B1, the binding result in data set [1] is reported as “binds”.

B2: scaffold 2 (RMP at -4) (structured_RNA)
RNA 1: UUUUCAUGCACUGCGUAGGCUCAUACCGUAUUGAGACCUUUUGGUCUCAAUACGGUA
RNA 2: UGAGCCUACGCAGUG
modifications: remdesivir monophosphate (RMP, 1'-cyano-4-aza-7,9-dideazaadenosine) at position 12 of strand 2, written as A (oligo R-4)
Regarding B2, the binding result in data set [1] is “binds”.

B3: scaffold 3 (AMP at -4) (structured_RNA)
RNA 1: UUUUCAUGCACUGCGUAGGCUCAUACCGUAUUGAGACCUUUUGGUCUCAAUACGGUA
RNA 2: UGAGCCUACGCAGUG
As for B3, the binding result in data set [2] was “binds”.
